Biological target: T1, Gpr158 (Mus musculus, UniProt Q8C419)
T1 sequence (Q8C419 25-1200): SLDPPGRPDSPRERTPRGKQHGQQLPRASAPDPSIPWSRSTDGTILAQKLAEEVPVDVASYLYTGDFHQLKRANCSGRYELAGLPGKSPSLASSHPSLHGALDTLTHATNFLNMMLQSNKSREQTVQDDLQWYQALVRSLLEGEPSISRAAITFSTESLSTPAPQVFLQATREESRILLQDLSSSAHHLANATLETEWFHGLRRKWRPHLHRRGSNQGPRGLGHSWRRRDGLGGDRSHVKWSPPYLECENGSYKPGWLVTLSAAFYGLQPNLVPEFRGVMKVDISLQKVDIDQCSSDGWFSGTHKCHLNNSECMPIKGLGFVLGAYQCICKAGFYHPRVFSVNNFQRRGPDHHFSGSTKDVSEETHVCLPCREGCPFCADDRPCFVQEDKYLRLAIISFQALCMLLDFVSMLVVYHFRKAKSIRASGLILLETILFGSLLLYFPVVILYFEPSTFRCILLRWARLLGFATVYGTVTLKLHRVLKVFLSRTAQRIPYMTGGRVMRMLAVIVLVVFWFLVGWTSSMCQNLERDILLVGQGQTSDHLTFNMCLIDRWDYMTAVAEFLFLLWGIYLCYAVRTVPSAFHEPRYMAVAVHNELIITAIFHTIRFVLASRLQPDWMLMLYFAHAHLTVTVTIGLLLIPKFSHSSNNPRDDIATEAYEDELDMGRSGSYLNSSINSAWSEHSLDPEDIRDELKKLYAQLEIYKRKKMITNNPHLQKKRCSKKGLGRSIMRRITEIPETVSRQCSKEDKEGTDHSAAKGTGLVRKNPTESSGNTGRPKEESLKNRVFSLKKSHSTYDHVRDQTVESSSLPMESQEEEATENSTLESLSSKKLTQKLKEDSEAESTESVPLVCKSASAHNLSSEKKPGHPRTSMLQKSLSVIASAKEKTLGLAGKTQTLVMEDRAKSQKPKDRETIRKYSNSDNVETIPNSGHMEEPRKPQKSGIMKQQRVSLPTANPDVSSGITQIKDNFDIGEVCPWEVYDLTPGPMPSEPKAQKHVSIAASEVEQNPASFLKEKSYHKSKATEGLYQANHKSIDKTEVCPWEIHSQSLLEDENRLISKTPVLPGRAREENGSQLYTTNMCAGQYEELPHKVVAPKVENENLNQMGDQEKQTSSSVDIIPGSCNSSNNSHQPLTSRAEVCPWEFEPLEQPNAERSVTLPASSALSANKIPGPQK
Experiment: Hippocampal lentiviral sh-Gpr158 knockdown followed by osteocalcin injection, NOR and CFC
Format: in vivo
Design: from tissue; host or cells: anterior hippocampus of living 3-month-old C57BL/6J male mice
Protocol: Mice were anesthetized with intra-peritoneal injection of […] (Rompun 2%; Bayer) and placed in a stereotaxic frame (900SL-KOPF). Ophthalmic eye ointment was applied to the cornea to prevent desiccation during surgery. The area around the incision was trimmed and Vetedine solution (Vetoquinol) was appplied. Lentiviruses expressing shRNA targeting Gpr158 or non-effective scramble shRNA in pGFP-C-shLentiVector were injected bilaterally into the anterior hippocampi using the following coordinates: (from bregma) anterior=−2.0 mm, lateral=+/−1.4 mm and height=-1.33 mm. Coordinates were determined using the Mouse Brain in Stereotaxic Coordinates (Paxinos and Franklin, 2008). Two weeks later, osteocalcin (10 ng) or NaCl were injected using the same coordinates. […]
Novel object recognition test (NOR): The NOR paradigm assesses the rodent's ability to recognize a novel object in the environment. […] These objects elicit equal levels of exploration as determined in pilot experiments (Denny, C. A., et al., 2012, Hippocampus 22:1188-1201; Oury, F., et al., 2013, Cell 155:228-241). […] Preference for the novel object is assessed based on the fraction of time that a mouse spends exploring the novel object compared to the familiar object. Exploration is scored from video recordings of each exposure and recorded using the Stopwatch program. […]

## osteocalcin: Recombinant osteocalcin bacterially produced, cleaved from the GST subunit; completely undercarboxylated at all three sites; full-length mouse osteocalcin (YLGASVPSPDPLEPTREQCELNPACDELSDQYGLKTAYKRIYGITI)
Control (scrambled shRNA) mice, osteocalcin 10 ng in anterior hippocampus
  memory performance (NOR): enhanced memory performance
sh-control vs sh-Gpr158 mice, osteocalcin 10 ng
  contextual fear conditioning (CFC): A similar result was obtained
